Patent US20140105900A1 (Amgen, published 2014)

B1: 29G8 (antibody, V domains shown)
VH: QVQLVESGGGVVQPGRSLRLSCAASGFTFSSYGMHWVRQAPGKGLEWVAVIWYDGSNKYYVDSVKGRFTISRDNSKNTLYLQMNSLRAEDTAVYYCARDRGYYDSGSYYMDYWGQGSLVTVSS
VL: DIQMTQSPSSVSASVGDRVTITCRASQGISTWLAWYQQKPGKAPKLLIYAASILQRGVPSRFSGSGSGTDFTLTISSLQPEDFTTYYCQQANSFPRTFGQGTKVEIKR
notes: Fully human antibody from XenoMouse, subcloned as a full IgG construct; also called anti-IL-21 receptor antibody 29G8; IL-21R mAb 29G8
B2: 34H7 (antibody, V domains shown)
VH: EVQLVQSGAELKKPGESLKISCKGSGYRFTSYWIGWVRQMPGKGLEWMGIIYPGDSDTRYSPSFQGQVTISADKSISTAYLQWHSLKVSDTAMYYCASPGYSTRWYHFDYWGQGTLVTVSS
VL: EIVMTQSPATLSVSPGERATLSCRASQSISSSLVWYQQKPGQAPRLLIYGASTRATGIPARFSGSGSGTEFSLTISSLQSEDFAVYYCQQYNNWPLLTFGPGTKVDIKR
notes: Fully human antibody from XenoMouse, subcloned as a full IgG construct; also called anti-IL-21 receptor antibody 34H7; IL-21R mAb 34H7
B3: 30G3 (antibody, V domains shown)
VH: QVQLQESGPGLVKPSETLSLTCTVSGGSISSYYWSWIRQPAGKGLEWIGRIYTSGSTYFNPSLKSRVTMSVDTSKNQFSLKLSSVTAADTAVYYCARGRELLDYWGQGTLVTVSS
VL: EVVLTQSPGTLSLSPGERATLSCRASQSFSSSYLAWYQQKPGQAPRLLIFGASSRATGIPDRFSGSGSGTDFTLTINRLEPEDFALYYCQQYGRSPLTFGGGTKVEIKR
notes: Fully human antibody from XenoMouse; also called anti-IL-21 receptor antibody 30G3; IL-21R mAb 30G3

The binders below were run against T1, human IL-21 receptor on cells (human, UniProt Q9HBE5 20-538) (assay: cell-based or functional assay).
T1 sequence (Q9HBE5 20-538 limits assumed): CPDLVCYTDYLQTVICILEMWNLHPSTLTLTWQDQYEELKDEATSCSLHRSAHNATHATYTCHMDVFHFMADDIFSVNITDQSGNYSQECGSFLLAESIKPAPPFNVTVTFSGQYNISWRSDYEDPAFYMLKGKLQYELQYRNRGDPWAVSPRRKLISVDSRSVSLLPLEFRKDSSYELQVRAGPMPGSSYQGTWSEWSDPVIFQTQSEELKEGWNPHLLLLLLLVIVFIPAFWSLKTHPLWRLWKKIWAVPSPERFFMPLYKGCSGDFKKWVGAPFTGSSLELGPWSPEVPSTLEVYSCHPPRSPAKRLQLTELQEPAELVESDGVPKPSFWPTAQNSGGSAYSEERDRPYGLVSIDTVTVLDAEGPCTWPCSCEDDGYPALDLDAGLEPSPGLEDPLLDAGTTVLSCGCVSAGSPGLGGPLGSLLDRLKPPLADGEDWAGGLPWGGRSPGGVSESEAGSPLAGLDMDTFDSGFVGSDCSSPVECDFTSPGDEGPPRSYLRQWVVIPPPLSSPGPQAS

Binder | B cell (IgA) IC-50, exp1 [pM] | B cell (IgA) IC-50, exp2 [pM] | B/T co-culture (IgA) IC-50, exp1 [pM] | B/T co-culture (IgA) IC-50, exp2 [pM] | B/T co-culture (IgA) IC-50, exp3 [pM] | B/T co-culture (IgA) IC-50, exp4 [pM] | B/T co-culture (IgA) IC-50, exp5 [pM] | CD8 T (IFNγ) IC-50, exp1 [pM] | CD8 T (IFNγ) IC-50, exp2 [pM] | hu pSTAT3 IC-50, B [pM]
B1 | 22 | 47 | 29 | 8 | 17 | 17 | 14 | 139 | 48 | 137
B2 | 18 | 49 | 16 | 9 | 11 | 17 | 10 | 79 | 27 | 14
B3 | 58 | 31 | 44 | 31 | 24 | 24 | 19 | 203 | 35 | 36

Same assay, conditions: not given

Binder | hu pSTAT3 IC-50, T [pM]
B1 | 33
B2 | 8
B3 | 10

What follows are binders tested against cynomolgus IL-21 receptor on cells (cynomolgus monkey, UniProt G7Q0S8 41-559) (assay: cell-based or functional assay).

Binder | cyno pSTAT3 IC-50, B [pM] | cyno pSTAT3 IC-50, T [pM]
B1 | 65 | 286
B2 | 4 | 13
B3 | 9 | 33

The binders below were run against T2, recombinant human IL-21 receptor (human, UniProt Q9HBE5 20-232) (assay: Biacore, recombinant human IL-21R).
T2 construct: Used in Biacore and KinExA ('recombinant IL-21R', column 'hu'); also called recombinant IL-21R; hu IL-21R
T2 sequence (Q9HBE5 20-232 limits assumed): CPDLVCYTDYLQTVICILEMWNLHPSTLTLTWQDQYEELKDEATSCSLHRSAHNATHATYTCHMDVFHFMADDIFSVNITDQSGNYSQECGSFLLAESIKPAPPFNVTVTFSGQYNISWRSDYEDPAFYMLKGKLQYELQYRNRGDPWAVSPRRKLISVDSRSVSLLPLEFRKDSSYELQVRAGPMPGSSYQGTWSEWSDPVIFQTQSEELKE

Binder | Kd [nM]
B1 | 0.078
B2 | 0.035
B3 | 0.016

The binders below were run against T3, recombinant cynomolgus IL-21 receptor (cynomolgus monkey, UniProt G7Q0S8 41-253) (assay: Biacore, recombinant cyno IL-21R).
T3 construct: construct not described; also called cyno IL-21R

Binder | Kd [nM]
B1 | 0.166
B2 | 0.043
B3 | 0.078

Each binder was assayed against T2, recombinant human IL-21 receptor (assay: KinExA, recombinant human IL-21R).

Binder | Kd [nM]
B1 | 0.026
B2 | 0.006
B3 | 0.015

The binders below were run against T1, human IL-21 receptor on cells (assay: flow cytometry on Ramos cells, antibody titration, anti-huIgG detection).
Procedure: Assay protocols ¹B/T co-culture. Mitomicin C-treated human T cells were cultured with B cells in anti-CD3 antibody pre-coated 96-well plates as described in Kuchen et al. (2007) J Immunol 179: 5886, incorporated herein by reference in its entirety. Supernatants were collected for IgA ELISA on day 6. ²B cell IgA production. Negatively selected human peripheral blood B cells were cultured in vitro with IL-21 and CD40L. On day 6, supernatants were collected for human IgG ELISA analysis. ³CD8 IFN-γ production. Purified human CD8 T cells were cultured with IL-21. IFN-γ was measured in the supernatant on day 3. ⁴Whole blood pSTAT3 stimulation. Human or cynomolgus monkey whole blood was pre-incubated with IL-21R mAbs titrations at 37° C. for 1 hr and stimulated with IL-21. Cells were fixed, permeabilized and stained for pSTAT3 and cell surface markers. ⁵Cell based KD measurement. Ramos cells (Human Burkitt's lymphoma) were incubated with a titration of IL-21R mAbs and bound antibody was detected with anti-huIgG by flow cytometry.

Binder | Kd [nM]
B1 | 0.016
B2 | 0.015
B3 | 0.033
